Patent publication US20100166708

Target: T1, tumor necrosis factor receptor (TNFR)-associated factor 1, Q13077
T1 chain: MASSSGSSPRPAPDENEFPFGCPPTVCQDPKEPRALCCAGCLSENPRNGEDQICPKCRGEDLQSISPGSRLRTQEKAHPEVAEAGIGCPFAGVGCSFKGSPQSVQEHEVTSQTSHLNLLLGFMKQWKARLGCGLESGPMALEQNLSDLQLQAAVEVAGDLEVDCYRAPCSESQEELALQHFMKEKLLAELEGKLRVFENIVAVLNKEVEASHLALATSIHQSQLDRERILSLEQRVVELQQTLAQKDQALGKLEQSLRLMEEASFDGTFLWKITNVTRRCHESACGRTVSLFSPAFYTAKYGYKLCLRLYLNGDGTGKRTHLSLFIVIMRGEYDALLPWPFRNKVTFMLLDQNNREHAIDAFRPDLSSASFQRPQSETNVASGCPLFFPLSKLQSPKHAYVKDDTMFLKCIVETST

B1: caspase 8 (protein)
chain: MDFSRNLYDIGEQLDSEDLASLKFLSLDYIPQRKQEPIKDALMLFQRLQEKRMLEESNLSFLKELLFRINRLDLLITYLNTRKEEMERELQTPGRAQISAYRVMLYQISEEVSRSELRSFKFLLQEEISKCKLDDDMNLLDIFIEMEKRVILGEGKLDILKRVCAQINKSLLKIINDYEEFSKERSSSLEGSPDEFSNGEELCGVMTISDSPREQDSESQTLDKVYQMKSKPRGYCLIINNHNFAKAREKVPKLHSIRDRNGTHLDAGALTTTFEELHFEIKPHDDCTVEQIYEILKIYQLMDHSNMDCFICCILSHGDKGIIYGTDGQEAPIYELTSQFTGLKCPSLAGKPKVFFIQACQGDNYQKGIPVETDSEEQPYLEMDLSSPQTRYIPDEADFLLGMATVNNCVSYRNPAEGTWYIQSLCQSLRERCPRGDDILTILTEVNYEVSNKDDKKNMGKQMPQPTFTLRKKLVFPSD
cleavage of TRAF1 to N-terminal TRAF1 (western blot, normal human keratinocytes): The overexpression of TRIF caused caspase 8-dependent cleavage of TRAF1 to release N-terminal TRAF1 (N-TRAF1) (FIG. 14e), which was prevented by caspase 8 inhibitor (FIG. 14f)
